Sequences and labels used below:
B1: cCl1-1 (antibody, V domains shown)
VH: QIQLVQSGPELKKPGESVKISCKASGYTFTDYAMHWVKQAPGKGLKWMGWINTYTGKPTYADDFKGRFVFSLEASASTANLQISNLKNEDTATYFCARAVFYGYTMDAWGQGTSVTVSS
VL: DIQMTQSPASLSASLGETISIACRASEDIYSNLAWYQQKSGKSPQLLIFSVKRLQDGVPSRFSGSGSGTQYSLKISGMQPEDEGDYFCLQGSNFPLTFGSGTKLEIK
B2: hCl1a (antibody, human IgG1, kappa, V domains shown)
VH: QVQLVQSGAEVKKPGASVKVSCKASGYTFTDYAMHWVRQAPGQRLEWMGWINTYTGKPTYAQKFQGRVTITRDTSASTAYMELSSLRSEDTAVYYCARAVFYGYTMDAWGQGTLVTVSS
VL: DIQMTQSPSSLSASVGDRVTITCRASEDIYSNLAWYQQKPGKAPKLLIFSVKRLQDGVPSRFSGSGSGTDFTLTISSLQPEDFATYYCLQGSNFPLTFGQGTKVEIKR
B3: hCl1c (antibody, human IgG1, kappa, V domains shown)
VH: B2 VH with A61S
VL: B2 VL with A25T, S50A, V51I, N93K
B4: hCl1b (antibody, human IgG1, kappa, V domains shown)
VH: B2 VH with A61S
VL: B2 VL
B5: hCl1f (antibody, human IgG1, kappa, V domains shown)
VH: B2 VH with T53A
VL: B2 VL with F49Y

Numbering of substitutions follows the chain as printed.

This assay deals with CLDN18.2 expressed in mouse healthy stomach tissue (mouse) (UniProt P56857). Description: flow cytometry, live cells from healthy mouse stomach, antibody 4 µg/ml.
Consider B1, for which the % of positive healthy stomach cells (Average) worked out at 0.35%, the % of positive healthy stomach cells (Mouse 1) is 0.4% and the % of positive healthy stomach cells (Mouse 2) is 0.3%.
B2 yielded a % of positive healthy stomach cells (Average) of 0.75%, a % of positive healthy stomach cells (Mouse 1) of 1.2% and a % of positive healthy stomach cells (Mouse 2) of 0.3%.
For B3 the same measures were 0.25%, 0.1% and 0.4%.
B4 yielded a % of positive healthy stomach cells (Average) of 0.565%, a % of positive healthy stomach cells (Mouse 1) of 1% and a % of positive healthy stomach cells (Mouse 2) of 0.13%.
For B5, the % of positive healthy stomach cells (Average) worked out at 0.07%, the % of positive healthy stomach cells (Mouse 1) came to 0.04% and the % of positive healthy stomach cells (Mouse 2) is 0.1%.

(Values after patent US20240034783A1.)
